Patent publication US9340579B2, “DPP-4 inhibitor” (NIPPI, INCORPORATED, priority 2011, dated 2016)
Square brackets hold non-standard residues; d marks the D form. Ends that are not written are not given here. Peptide text beside a SMILES is read from it. Hyp = O=C(O)[C@@H]1C[C@@H](O)CN1

molecular target: T1, DPP-4 (manufactured by Sigma, derived from porcine kidney) (porcine, UniProt P22411 38-766, limits assumed); assay: cell-based or functional assay; conditions: not given
T1 sequence (P22411 38-766 limits assumed): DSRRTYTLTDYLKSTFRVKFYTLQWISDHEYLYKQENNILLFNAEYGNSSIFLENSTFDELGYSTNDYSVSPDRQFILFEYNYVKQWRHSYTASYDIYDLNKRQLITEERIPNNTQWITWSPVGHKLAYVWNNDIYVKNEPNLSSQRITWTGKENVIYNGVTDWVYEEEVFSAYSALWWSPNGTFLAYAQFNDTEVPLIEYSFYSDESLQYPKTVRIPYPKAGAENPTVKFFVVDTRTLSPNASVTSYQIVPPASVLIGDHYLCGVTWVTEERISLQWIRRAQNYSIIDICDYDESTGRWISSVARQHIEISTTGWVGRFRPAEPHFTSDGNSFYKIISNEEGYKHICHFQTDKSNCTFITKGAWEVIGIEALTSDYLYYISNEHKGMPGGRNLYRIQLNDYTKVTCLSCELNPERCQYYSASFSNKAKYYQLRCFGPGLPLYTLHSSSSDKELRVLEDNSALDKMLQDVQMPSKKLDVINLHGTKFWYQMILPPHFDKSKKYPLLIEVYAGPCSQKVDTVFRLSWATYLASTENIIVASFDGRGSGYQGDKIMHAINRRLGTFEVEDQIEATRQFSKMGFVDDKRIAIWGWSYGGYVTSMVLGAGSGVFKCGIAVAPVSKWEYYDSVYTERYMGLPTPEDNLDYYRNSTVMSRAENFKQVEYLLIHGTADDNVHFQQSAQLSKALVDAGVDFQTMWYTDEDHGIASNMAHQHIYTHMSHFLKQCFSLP

Molecule | IC50 value | Inhibition rate (%) at 0.35 mg/ml time
L[Hyp]GPA [Leu-Hyp-Gly-Pro-Ala] | 830 µM | 52.1%
Pro-[Hyp] [Pro-Hyp] |  | 0%
[Hyp]-Gly [Hyp-Gly] |  | 0%
Leu-[Hyp]-Gly [Leu-Hyp-Gly] | 130 µM | 89.3%
Ala-[Hyp] [Ala-Hyp] |  | 0%
Phe-[Hyp] [Phe-Hyp] |  | 0%
Pro-[Hyp]-Gly [Pro-Hyp-Gly] | 4640 µM | 27.2%
Leu-[Hyp] [Leu-Hyp] | 1320 µM | 48.6%
Ile-[Hyp]-Gly [Ile-Hyp-Gly] | 500 µM | 71%
LPG [Leu-Pro-Gly] | 50 µM | 
LP [Leu-Pro] | 110 µM | 92.1%
Ala-[Hyp]-Gly [Ala-Hyp-Gly] | 9450 µM | 14.6%
LPGPA [Leu-Pro-Gly-Pro-Ala] | 63 µM | 94.9%
APG [Ala-Pro-Gly] | 30 µM | 98.7%

molecular target: T2, DPP-4 (manufactured by Sigma, derived from porcine kidney) (Sus scrofa, UniProt P22411); assay: DPP-4 inhibition rate and IC50 measurement, fluorescence of AMC freed from Gly-Pro-MCA; type: biochemical; conditions: Table 1; sample concentration changed between 0.001 and 7.2 μmol/ml; read-out: IC50 value
T2 construct: derived from porcine kidney; purchased Sigma; host or cells: porcine kidney (tissue-derived)
T2 sequence (P22411 whole entry): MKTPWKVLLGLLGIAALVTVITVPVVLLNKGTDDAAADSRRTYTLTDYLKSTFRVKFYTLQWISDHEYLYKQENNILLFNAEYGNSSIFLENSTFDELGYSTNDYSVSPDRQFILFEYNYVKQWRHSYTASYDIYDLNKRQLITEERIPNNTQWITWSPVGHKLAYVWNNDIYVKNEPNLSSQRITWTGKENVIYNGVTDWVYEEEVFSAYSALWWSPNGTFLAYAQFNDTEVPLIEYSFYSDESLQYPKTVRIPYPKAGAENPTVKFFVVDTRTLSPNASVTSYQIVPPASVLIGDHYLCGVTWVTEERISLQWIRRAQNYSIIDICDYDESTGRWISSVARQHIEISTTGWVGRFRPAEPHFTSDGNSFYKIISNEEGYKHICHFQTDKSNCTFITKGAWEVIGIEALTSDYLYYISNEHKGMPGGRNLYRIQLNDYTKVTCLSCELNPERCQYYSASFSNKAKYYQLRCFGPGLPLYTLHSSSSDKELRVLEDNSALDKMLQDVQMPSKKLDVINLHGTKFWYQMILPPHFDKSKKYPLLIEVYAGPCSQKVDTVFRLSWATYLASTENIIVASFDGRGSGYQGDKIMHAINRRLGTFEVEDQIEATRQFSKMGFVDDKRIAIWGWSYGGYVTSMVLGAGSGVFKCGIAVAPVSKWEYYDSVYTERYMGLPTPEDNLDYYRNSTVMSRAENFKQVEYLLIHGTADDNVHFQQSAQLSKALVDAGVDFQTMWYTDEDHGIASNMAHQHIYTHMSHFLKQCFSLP
Experimental: A sample liquid 35 μl obtained by dissolving a sample 1 mg in 50 mM tris-hydrochloric acid buffer (pH 7.5) 1 ml and DPP-4 (manufactured by Sigma, derived from porcine kidney; 8.6 mU/ml) 15 μl that had been dissolved in 50 mM tris-hydrochloric acid buffer (pH 7.5) were mixed in a microtiter plate well (manufactured by NUNC, trade name “237015”) and incubated at 37° C. for 10 minutes.
Thereto, 50 μl of a substrate solution (one obtained by dissolving glycyl-Pro-4-methylcoumarin-7-amide (Gly-Pro-MCA) in 50 mM tris-hydrochloric acid buffer (pH 7.5) so as to be 10 μM) that had in advance heated to and kept at 37° C. was added, mixed, and allowed to react at 37° C. for 20 minutes.
The fluorescence intensity of 7-amino-4-methylcoumarin (AMC) that was freed by DPP-4 was measured with time by a microplate reader type fluorescence detector (manufactured by Corona Electric Co., Ltd., trade name “SH-9000”). Note that the measurement wavelength was an excitation wavelength of 380 nm and a measurement wavelength of 460 nm. Note that one obtained by using the same amount of 50 mM tris-hydrochloric acid buffer (pH 7.5) in replace of the sample was used as a control; and the fluorescence intensity thereof was measured.
The activity of DPP-4 was expressed by an average gradient of change in the amount of the fluorescence intensity during the reaction time; and, as for DPP-4 inhibition rate, difference obtained by, with the control as 100%, subtracting the activity of the sample from the above-mentioned control was calculated as an inhibition rate (%).
In accordance with the above method of measuring a DPP-4 inhibition rate, sample concentration was changed between 0.001 and 7.2 μmol/ml to obtain the inhibition rate, thereby calculating the 50% inhibitory concentration (IC50 value) of the activity of DPP-4.

Molecule | IC50
C[C@H](NC(=O)[C@@H]1CCCN1C(=O)CN)C(=O)NCC(=O)N1CCC[C@H]1C(=O)N1C[C@H](O)C[C@H]1C(=O)O [Example 3, Gly-Pro-Ala-Gly-Pro-Hyp] (H-GPAGP[Hyp]-OH; N-terminus and C-terminus assumed) | 70 µM

molecular target: T1, DPP-4 (manufactured by Sigma, derived …); assay: cell-based or functional assay; conditions: not given; remark: another data set of the same source

Molecule | IC50 value | Inhibition rate (%) at 0.35 mg/ml time
GPAGP [Gly-Pro-Ala-Gly-Pro] | 60 µM | 95.8%
GPLGPV [Gly-Pro-Leu-Gly-Pro-Val] | 24 µM | 
GPV [Gly-Pro-Val] | 370 µM | 76.5%
GPP [Gly-Pro-Pro] | 78200 µM | 10.2%
GPE [Gly-Pro-Glu] | 194 µM | 86.4%
Gly-Ala-[Hyp] [Gly-Ala-Hyp] |  | 0%
GAIGPS [Gly-Ala-Ile-Gly-Pro-Ser] | 314 µM | 70.4%
GPIGPV [Gly-Pro-Ile-Gly-Pro-Val] | 9.3 µM | 
Gly-Pro-[Hyp] [Gly-Pro-Hyp] |  | 0%
GAIGPA [Gly-Ala-Ile-Gly-Pro-Ala] | 285 µM | 71.5%
GPAGPI [Gly-Pro-Ala-Gly-Pro-Ile] | 50 µM | 
GA [Gly-Ala] | 3340 µM | 42.5%
GAVGPA [Gly-Ala-Val-Gly-Pro-Ala] | 437 µM | 63.7%
GPAGP[Hyp] [Gly-Pro-Ala-Gly-Pro-Hyp] | 70 µM | 
GPQ [Gly-Pro-Gln] | 310 µM | 80.2%
GPAGPR [Gly-Pro-Ala-Gly-Pro-Arg] | 80 µM | 
GPAG [Gly-Pro-Ala-Gly] | 150 µM | 
GAVGP [Gly-Ala-Val-Gly-Pro] | 1200 µM | 40.9%
